Values belong to the binder of their own block, whether it stands above or below them. Where no end group is shown, it is not given here. [ ]: non-standard residue; d: D form. sY = N[C@@H](Cc1ccc(OS(=O)(=O)O)cc1)C(=O)O
Assays:
human prothrombin [1] = target: T1, human prothrombin (human, UniProt P00734 44-622); experiment: cell-based or functional assay
human prothrombin [2] = target: T1, human prothrombin; experiment: calculated from IC50 (1.6 µM) of prothrombinase inhibition, IC50=Ki(1+S0/Km)
Description: All experiments were performed in triplicates or as indicated. The concentration of each peptide given in the figures and figure legends is their final concentration in the assay. The data were stored using the software FL WinLab (Perkin-Elmer Corp, Norwalk Conn.) and further analyzed and plotted with the software Prizm (GraphPad, San Diego, Calif.). In some cases the data were also analyzed and plotted using DeltaGraph (DeltaPoint, Monterey, Calif.).

[3] = target: T2, N-alpha-[(acetylthio)acetyl]-Phe-Pro-Arg-thrombin (ATA-FPR-thrombin) coupled to agarose through the active … (UniProt P00734 328-622); experiment: chromatography on 2.5 ml thrombin-agarose, LC/MS of fraction #7 (before the salt elution)
Description: (§1) Since some of the peptides contain aromatic amino acid residues, their concentration was also measured by optical density.
(§2) Each run represents 400 μg of peptide. […] Elution was performed with 2M NaCl and was started at the point indicated by the arrow (fraction #30). The presence of the peptides in the corresponding fractions was monitored by absorbance at 280 nm (shown on the y axis) and by LC/MS (inset).

[4] = target: T2, N-alpha-[(acetylthio)acetyl]-Phe-Pro-Arg …; experiment: chromatography on 2.5 ml thrombin-agarose, LC/MS of fractions
Description: as §1, §2

human prothrombin [5] = target: T1, human prothrombin; experiment: calculated from IC50 of prothrombinase inhibition, IC50=Ki(1+S0/Km), Km 0.4 µM, prothrombin 350 nM
Description: The buffer used in all cases was composed of 20 mM Hepes, 0.15 M NaCl, 5 mM CaCl₂, pH 7.4 [HBS(Ca²⁺), “assay buffer”]. […] All experiments were performed in triplicates or as indicated. The concentration of each peptide given in the figures and figure legends is their final concentration in the assay. The data were stored using the software FL WinLab (Perkin-Elmer Corp, Norwalk Conn.) and further analyzed and plotted with the software Prizm (GraphPad, San Diego, Calif.). In some cases the data were also analyzed and plotted using DeltaGraph (DeltaPoint, Monterey, Calif.).

human prothrombin [6] = target: T1, human prothrombin; experiment: kinetic analysis of prothrombinase inhibition
[7] = target: T2, N-alpha-[(acetylthio)acetyl]-Phe-Pro-Arg …; experiment: chromatography on 2.5 ml thrombin-agarose, A280
Description: as §1, §2

Binder: NRLAAALGIR (Last of five overlapping 10-mers) [HC5 peptide (from region 680-709 of human factor Va heavy chain)]
binding result [3]: no binding (tested: 400 µg of peptide)

Binder: LEPEDEESDA [HC2 peptide (from region 680-709 of human factor Va heavy chain)]
binding result [4]: no binding (tested: 400 µg of peptide)

Binder: DYDYQNRLAA (Synthetic 10-residue peptide) [HC4 peptide (amino acid residues 695-704 of human factor Va heavy chain)]
Ki (human prothrombin [5]): 5.3 µM
IC50 of inhibition of prothrombinase activity (DAPA thrombin formation assay) (human prothrombin [1]): 10 µM

B2: double sulfonated peptide DYDYQ (1, 2), DY(-SO3)DY(-SO3)Q (peptide)
peptide: D[sY]D[sY]Q
notes: Sulfonated form of the factor Va 695-699 motif; also called D5Q1,2
binding result (human prothrombin [6]): binds

Binder: EESDADYDYQ (Synthetic 10-residue peptide) [HC3 peptide (amino acid region 690-699 of human factor Va heavy chain)]
Ki (human prothrombin [5]): 6.3 µM
IC50 of inhibition of prothrombinase activity (DAPA thrombin formation assay) (human prothrombin [1]): 12 µM

Other lines, results leading:

IC50 of inhibition of prothrombinase function (human prothrombin [1]): 1.6 µM
Ki (human prothrombin [2]): 0.85 µM
B1: pentapeptide DYDYQ (Asp695-Tyr696-Asp697-Tyr698-Gln699 of human factor Va heavy chain) (peptide)
peptide: DYDYQ
notes: Synthetic, non-sulfonated pentapeptide; also called D5Q

binding result [4]: no binding (tested: 400 µg of peptide)
Binder: KMHDRLEPED (First of five overlapping 10-mers) [HC1 peptide (from region 680-709 of human factor Va heavy chain)]

binding result [7]: no binding (tested: 400 µg of peptide)
B3: P15H control pentadecapeptide (amino acid sequence 337-351 from the middle portion of human factor Va heavy chain) (peptide)
peptide: PVIPANMDKKYRSQH
notes: Negative control peptide; also called control peptide
